By Kd is commonly meant the free concentration of one partner at which half of the binding sites on the other are occupied at equilibrium, for simple one-to-one binding. A lower Kd goes with higher affinity.

Here are results for 3 molecules from US8318163 (Genentech, dated 2012).

Data set [1] deals with the molecule itself. In words: multi-angle light scattering, self-association.
In a further data set the target is T1, human Nrp2 b1b2 (human, UniProt O60462 275-595).
T1 construct: range 275-595; Range is that of the crystallization construct; also called Nrp2 b1b2 domains
T1 sequence (looked up): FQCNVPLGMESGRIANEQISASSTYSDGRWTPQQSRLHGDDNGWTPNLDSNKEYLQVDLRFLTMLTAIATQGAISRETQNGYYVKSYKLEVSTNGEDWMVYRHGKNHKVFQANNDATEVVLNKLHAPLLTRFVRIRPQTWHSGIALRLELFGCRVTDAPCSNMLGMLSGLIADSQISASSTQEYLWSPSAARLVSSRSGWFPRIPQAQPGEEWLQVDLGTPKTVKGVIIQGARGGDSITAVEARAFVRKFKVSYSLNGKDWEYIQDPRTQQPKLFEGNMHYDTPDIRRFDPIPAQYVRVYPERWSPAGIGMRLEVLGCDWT
In words: BIAcore (SPR), 500 nM Nrp protein injected over immobilized IgG at 25 C. The text has this:
(§1) Figure 11: FIG. 11—Analysis of anti-Nrp antibody binding kinetics. BIAcore kinetic analysis of anti-panNrp[4] antibody.
In general terms: SPR reads the build-up and loss of mass on a sensor chip optically.

Data set [2] deals with T2, human Nrp1 protein (BIAcore analyte) (human, UniProt O14786 22-586, limits assumed).
T2 construct: no residue range for such an Nrp1 construct is printed; also called neuropilin-1
T2 sequence (looked up): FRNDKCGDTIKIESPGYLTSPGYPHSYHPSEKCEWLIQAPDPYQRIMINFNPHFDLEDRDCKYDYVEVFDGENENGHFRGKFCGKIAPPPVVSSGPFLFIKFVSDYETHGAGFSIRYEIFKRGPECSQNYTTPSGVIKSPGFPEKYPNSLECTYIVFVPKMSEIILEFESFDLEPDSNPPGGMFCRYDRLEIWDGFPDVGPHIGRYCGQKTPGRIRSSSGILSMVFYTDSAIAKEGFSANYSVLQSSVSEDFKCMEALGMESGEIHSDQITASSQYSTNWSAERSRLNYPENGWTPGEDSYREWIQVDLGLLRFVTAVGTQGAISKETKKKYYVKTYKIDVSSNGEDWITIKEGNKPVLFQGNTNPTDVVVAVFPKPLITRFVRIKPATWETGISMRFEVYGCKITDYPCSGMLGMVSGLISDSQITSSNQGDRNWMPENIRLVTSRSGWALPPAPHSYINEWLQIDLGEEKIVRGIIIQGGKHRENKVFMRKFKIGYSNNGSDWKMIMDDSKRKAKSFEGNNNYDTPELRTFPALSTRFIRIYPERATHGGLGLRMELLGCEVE
In words: BIAcore, IgG immobilized on the chip, human NRP protein injected, 25 C; Nrp1 (first of the two affinities).
Source text: as §1

Another data set concerns the target T3, human Nrp2 a1a2b1b2 (human, UniProt O60462 21-595, N-glycosylated (two sites within the a2 domain seen in the monoclinic crystal form)).
T3 construct: range 1-595; The printed range begins at Met1 and so includes the native signal peptide, which is cleaved on secretion
T3 sequence: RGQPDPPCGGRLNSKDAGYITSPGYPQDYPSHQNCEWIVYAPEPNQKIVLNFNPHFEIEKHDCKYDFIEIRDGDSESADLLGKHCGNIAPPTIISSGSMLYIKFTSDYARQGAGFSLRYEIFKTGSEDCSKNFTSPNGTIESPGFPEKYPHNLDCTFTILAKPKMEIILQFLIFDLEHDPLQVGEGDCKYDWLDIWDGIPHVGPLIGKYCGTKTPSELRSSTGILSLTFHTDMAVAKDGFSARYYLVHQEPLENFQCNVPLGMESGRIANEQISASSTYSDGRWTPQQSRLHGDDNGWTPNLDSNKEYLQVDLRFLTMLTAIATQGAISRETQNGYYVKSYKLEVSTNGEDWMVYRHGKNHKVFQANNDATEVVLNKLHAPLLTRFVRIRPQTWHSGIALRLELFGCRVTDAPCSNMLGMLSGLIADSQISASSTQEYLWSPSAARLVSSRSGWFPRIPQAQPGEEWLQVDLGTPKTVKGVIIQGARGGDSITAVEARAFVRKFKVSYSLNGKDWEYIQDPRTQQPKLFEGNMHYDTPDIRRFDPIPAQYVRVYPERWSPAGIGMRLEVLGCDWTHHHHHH
In words: BIAcore, IgG immobilized on the chip, human NRP protein injected, 25 C; Nrp2 (second of the two affinities).
Source text: as §1

B1: full-length human Nrp2-ECD (a1a2b1b2c) (receptor)
chain: RGQPDPPCGGRLNSKDAGYITSPGYPQDYPSHQNCEWIVYAPEPNQKIVLNFNPHFEIEKHDCKYDFIEIRDGDSESADLLGKHCGNIAPPTIISSGSMLYIKFTSDYARQGAGFSLRYEIFKTGSEDCSKNFTSPNGTIESPGFPEKYPHNLDCTFTILAKPKMEIILQFLIFDLEHDPLQVGEGDCKYDWLDIWDGIPHVGPLIGKYCGTKTPSELRSSTGILSLTFHTDMAVAKDGFSARYYLVHQEPLENFQCNVPLGMESGRIANEQISASSTYSDGRWTPQQSRLHGDDNGWTPNLDSNKEYLQVDLRFLTMLTAIATQGAISRETQNGYYVKSYKLEVSTNGEDWMVYRHGKNHKVFQANNDATEVVLNKLHAPLLTRFVRIRPQTWHSGIALRLELFGCRVTDAPCSNMLGMLSGLIADSQISASSTQEYLWSPSAARLVSSRSGWFPRIPQAQPGEEWLQVDLGTPKTVKGVIIQGARGGDSITAVEARAFVRKFKVSYSLNGKDWEYIQDPRTQQPKLFEGNMHYDTPDIRRFDPIPAQYVRVYPERWSPAGIGMRLEVLGCDWTDSKPTVETLGPTVKSEETTTPYPTEEEATECGENCSFEDDKDLQLPSGFNCNFDFLEEPCGWMYDHAKWLRTTWASSSSPNDRTFPDDRNFLRLQSDSQREGQYARLISPPVHLPRSPVCMEFQYQATGGRGVALQVVREASQESKLLWVIREDQGGEWKHGRIILPSYDMEYQIVFEGVIGKGRSGEIAIDDIRISTDVPLENCMEPISAFAGENFKVDIPEIHEREGYEDEIDDEYEVDWSNSSSATSGSGAPSTDKEKSWLYTLDPHHHHHH
notes: extracellular domain
On to B1, for which the binding result in data set [1] is recorded as “no binding”.

B2: anti-panNrp^A antibody, clone YW68.11.26 (IgG) (antibody, V domains shown)
VH: EVQLVESGGGLVQPGGSLRLSCAASGFTISGYGIHWVRQAPGKGLEWVAYIYPDSGYTDYADSVKGRFTISADTSKNTAYLQMNSLRAEDTAVYYCAREDFRNRRRLWYVMDYWGQGT
VL: DIQMTQSPSSLSASVGDRVTITCRASQDVSTAVAWYQQKPGKAPKLLIYSASFLYSGVPSRFSGSGSGTDFTLTDSSLQPEDFATYYCQQAWAYLTTFGQGTKVEIKR
notes: Human IgG1 from a synthetic phage library; immobilized as IgG on the BIAcore chip
Take B2: the binding result with human Nrp2 b1b2 is recorded as “no binding (tested: 500 nM)”. Further, the equilibrium dissociation constant (Kd) in data set [2] is 0.21 nM; in the data set with human Nrp2 a1a2b1b2, 0.15 nM.

B3: human Nrp2 a2b1b2 (receptor, UniProt O60462 145-595, looked up)
chain: GSEDCSKNFTSPNGTIESPGFPEKYPHNLDCTFTILAKPKMEIILQFLIFDLEHDPLQVGEGDCKYDWLDIWDGIPHVGPLIGKYCGTKTPSELRSSTGILSLTFHTDMAVAKDGFSARYYLVHQEPLENFQCNVPLGMESGRIANEQISASSTYSDGRWTPQQSRLHGDDNGWTPNLDSNKEYLQVDLRFLTMLTAIATQGAISRETQNGYYVKSYKLEVSTNGEDWMVYRHGKNHKVFQANNDATEVVLNKLHAPLLTRFVRIRPQTWHSGIALRLELFGCRVTDAPCSNMLGMLSGLIADSQISASSTQEYLWSPSAARLVSSRSGWFPRIPQAQPGEEWLQVDLGTPKTVKGVIIQGARGGDSITAVEARAFVRKFKVSYSLNGKDWEYIQDPRTQQPKLFEGNMHYDTPDIRRFDPIPAQYVRVYPERWSPAGIGMRLEVLGCDWT
notes: range 145-595; Purified on Ni-NTA; the tag of this construct is not described
B3: in data set [1], the binding result is recorded as “no binding”.
